# Data published in the nanobody polyreactivity screen of Harvey et al. (2022).
# Test: yeast display, Sf9 membrane polyspecificity reagent, FACS + sequencing; frameworks hold sequencing errors
# How it was run: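 Galactose induction of a Saccharomyces cerevisiae BJ5465 synthetic nanobody display library ran 36–48 hours. The cells were then stained for 1 hour at 4 °C with 10% biotinylated, detergent-solubilized Sf9 membrane reagent, pulled down on streptavidin microbeads and FACS-sorted into low and high (top ~1%) gates on expression and reagent-binding fluorescence. Labels for polyreactivity follow the gate of origin.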
row,Sequence,polyreactivity (PSR sort gate)
1,QVQLVESGGGLVQAGGSLRLICAASGRIFKLYAMGWYRQAPGKERELVASINSGGGSTNYADSVKGRFTISRDNAKNTVYLQMNSLKPEDPAVYYCAKCYRRVYGPFFYWGQGTQVTVSS,low polyreactivity
2,QVQLVESGGGLVQAGGSLRLSCAASGSTIDPYGMGWYRQAPGKERELVAAITSSGRTNYADSVKGRFTISRDNAKNTVYLQMNSLKPEDTAVYYCNVQTYVELRLDYWGQGTQVTVSS,low polyreactivity
3,QVQLVESGGGLVQAGGSLRLSCAASGRTFFRYVMGWYRQAPGKERELVAAISTRGGSTYYADSVKGRFTISRDNAKNTVYLQMNSLKPEDTAVYYCAARFKVRDYSYNYWGQGTQVTVSS,high polyreactivity
4,QVQRVESGGGLVQAGGSLRLSCAASGSIFPIYAMGWYRQAPGKERELVAGITWSGGSTYYADSVKGRFTISRDNAKNTVYLQMNSLKPEDTAVYYCAAERWHPYDYWGQGTQVTVSS,low polyreactivity
5,QVQLVESGGGLVQAGGSLRLSCAASGRIFGRYAMGWYRQAPGKERELVAAISRRGGTTYYADSVKGRFTISRDNAKNTVYLQMNSLKPEDTAVYSSNADTYGYGFDYWGQGTQVTVSS,high polyreactivity
6,QVQLVESGGGLVQAGGSLRLSCAASGSIFYWYAMGWYRQAPGKERELVAAISRNGGNTYYADSVKGRFTISRDNAKNTVYLQMNSLKPEDTAVYYCAVAGTVLSHMGYWGQGTQVTVSS,low polyreactivity
7,QVQLVESGGGLVQAGGSLRLSCAASGRTFVYNAMGWYRQARGKEREFVAAISSGGGTNYADSVKGRFTISRDNAKNTVYLQMNSLQPEDTAVYYCAAGSVSIFRGYRDYYNPKEYDYCGQGTQVTVSS,low polyreactivity
8,QVQLVESGGGLVQAGGSLRLSCAASGSTFAVYAMGWSRKAPGKERELVATIRWSAGRTYYADSVKGRFTISRDNAKNTVYLQMNSLKPEDTAVYYCAARTWGQSTYGQGLDYWGQGTQVTVSS,high polyreactivity
9,QVHLVESGGGIVQAGGSHRLSCAATGRIFAPYAMGWYRQAPGKERELVAAISWSDVSTDYADSVKGRFTISRDNAKNTVYLQMNSLKPEDTAVSYCAAAYPGYRGWYYYWGQGTQVTVSS,high polyreactivity
10,QVQLVESGGGLVQAGGSLRLSCAASGIIFDHNAMGWYRQAPGKERELVAAISTGGGNTYYADSVKGRFTISRDNAKNTVYLQMNSLKPEDTAVYYCATEPGYSYLTSYKYVYWGQGTQVTVSS,low polyreactivity
11,QGHREESGGGLVQAGGSLRLSCAASGSTFGIYALGWYIQEQGKERELVAAITWSGSSTYYADSVKGRFTISRDNAKNNVYLQINSLKPEDTAVYYCAAEDTLYEYYYWGQGTQVTVSS,high polyreactivity
12,QVQLVESGGGLVQAGGSLRLSCAASGFIFTQYAMGWYRQAPGKERELVAAITRSGGRTYYADSVKGRFTISRDNAKNTVYLQMNSLIPEDTAVYYCAVDTVTRTVLVYGDRNDSWGQGTQVTVSS,high polyreactivity
13,QVQRVESGGGLVQAGGSLRLSCAASGFIFYFYAMRWYRQAPGNERELVAAITWSGTDTYYADSVKGRFTISRDNAKNTVYLQMNSLKPEDTAVYYCARSEHSLVSIKVDYWGQGTQVTVSS,low polyreactivity
14,QVQLVESGGGLVQAGGSLRLSCAASGSIFFYYSMGWYRQAPGKERELVAAISLSGGRTYYADSVKGRSTISRDNAKNTVYLQMNSLKPEDTAVYYCNAASLSGRGQSYHYHGYDYWGQGTQVTVSS,high polyreactivity
15,QVQLVESGGGLVQAGGSLRLSCAASGSTFGYYTMGWYRQAPGKERELVAAITWSGGSTYYADSVKGRFTISRDNAKNSVYLQINSLKPEDSSVYYCAADDYWTPFGYWGQGTQVTVSS,low polyreactivity
16,QVQLVESGGGLVQAGGSLRLSCADSGSTLQVNAMGWYRQAPGKERELVATISFSGGSTYYADSVKGRFTISRDNAKNTVYLQMNSLNPEDTAVYYCNADSFVSWYNQFWYQATYDYWGQGTQVTVSS,low polyreactivity
17,QVQLVESGGGIVQAGGSLRLSCAASGRIFGWYAMGWYREAPGKERELVAAISSGGRTKYADSVKGRFTISRDNAKNTVYLQMNSLKAEDTAVYYCNARRSYLPYKFGYDYWGQGTQVTVSS,low polyreactivity
18,QVHLVESGGGLVQAGGSLRLSCAASGIFSRYAMRWYRQAPGKERELVDAISSGDSTNYADSVKGRFTISRDNAKNTVYLQMNSLKPEDTAVYYCATERSHLASGQGYYYVQTFYYWGQGTKVTVSS,low polyreactivity
19,QVQLQVSGGDLVQAGGSLRLSCAASGTIYGLTSMGWYRQAPGKEREFVAAITDGGNTNYADSVKGRFTISRDNAKNSVYLQMISLTPEDTAVYYCALLFSDEAYYAYCGQGTQVTVSS,low polyreactivity
20,QVQLVESGGGLVQAGGSLRLSCAASGFIFRNYAMGWYRQAPGKERELVAGITSSGGRTYYADSVKGRFTISRDNAKNTVYLQMNSLKPEDTAVYYCNIDVLYYRYTSFSNRYYYWGQGTQVTVSS,high polyreactivity
21,QVQLVESGGGIVHAGGSLRLSCAASGSTIDVYDMGWYRQAPGKERELVAAITTSGGGTYYADSVKGRFTISRDNAKNTVYLQMNRLKPEDTAVYYCAADTWRDGDDYWGQGTQVTVSS,low polyreactivity
22,QVQLVESGGGLVQAGGSLRLSCAASGFIFAWYAMGWYRQAPGKERELVARISRGGSTYYADSVKGRFTISRDNAKNTVYLHMNSLKPEYTAVYYCTAGAAYTYTRYDYWGQGTQVTVSS,high polyreactivity

row,Sequence,polyreactivity (PSR sort gate)
1,QVQLVESGGGLVQAGGSLRLSCAASGSTFGPYDMGWYRQAPGQERDLVAAITRSGGRTYYADSVKGRFTFSRDNAKNTVYLQKNSLKPEDTAVYYCAAPPSEATSQRYKYNYWGQGTQVTVSS,high polyreactivity
2,QDQLVESGGGLVQAGGSLRLSCAASGSICSEYAMGWYRQAPGKERELVAAISRSGGTTYYADSVKGRFTISRDNAKNTVFLQMNSLKPEDTAVYYCAARYFRGSYPMGYWGQGTQVTVSS,high polyreactivity
3,QVQLVESGGGLVQEGGSLRLSCAASGSTFYPNAMGWYRQAPGKERELVAAISSSGGSTYYADSVKGRFTISRDNAKNTVYLQMNSLKPEDTAVYYCNKRWFRDYDYWGPGTQVTVSS,high polyreactivity
4,QVQLVESGGGLVQAGGSLRLSCAASGFTFYTNAMGWYRQAPGKERELVAAISKRGASTYYADSVKGRFTISRDNAKNTFYLQMYSLKPEDTAVYYCAASSRTHGSYYYWGQGTQVTVSS,high polyreactivity
5,QVQLVESGGGLVQAGGSLRLSCAASGSIFGQNAMGWYRQAPGKERELVAAITTSRGSTYYADSVKGRFTISRDNPKNTVDFQMNSLNPEDTAVYYCAARYVTPGYIIYVYWGQGTQVTVSS,high polyreactivity
6,QVQLVESGGGLVQAGGSLRLSCAASGFTFRDYAMGWYRQAPGKERELVATITWRVGSTFYADSVKGRFTISRDNAKNTVYLQMNSLKPEDTAVYYCADEDSNVVAYDYWGQGTQVTVSS,low polyreactivity
7,QVQLVESGGGLVQAGGSLRLSCAASGSTFSSYAMGWYRQAPGKERELVAAISRRGGRTYYADSVKGRFTISRDNAKNTVYLQMNRLKPEDTAVYYCAADWGVRDEYYYWGQGTQVTVSS,high polyreactivity
8,QLQLVESGGGLVQAGGSLRLSCAASGFTFYVNAMGWYRQDPGKETEFVAAIDWSDTSTYYADSVKGRFTISRDNAKNTVYLQMISLKPVDTAVYYCAADFSPYDYDYWGQGTQVTVSS,high polyreactivity
9,QVQLVESGGGLVQAGGSLRLSCAASASIFSVYAMGWYRQAPGKERELVAAITRSGARTYYADSVKGRFTISRDNAKNTVYLQMNSLKPDDTAVYYCAADDPGYNQVEYWGQGTQVTVSS,high polyreactivity
10,QVQLVESGGGLVQAGCSLRLSCAASGSTYIRNAMGWYRQAPGKERELVAAISTSGSRTYYADSVKGRFTISRDNAKNTVYLQMNSLKPEDTAVYYCAKVPAGSRIEYDYCGQGTQVTVSS,high polyreactivity
11,QVQLVESGGGLVQAGGSLRLSCAASGSTFAPNAMGWYRQAPGKERELVAAISSGGDSTNYADSVKGRFTISRDNAKNTVYLQMNSLKPEDTAVYYCAHGYWFVAYDYWGQGTQVTVSS,low polyreactivity
12,QVQLVESGGGLVQAGGSLRLSCAASGSIFSRYAMGWYRQAPGKERELVAAITSSGGRTYYADSVKGRFTISRDNAKNTVYLQMNSLKPEDTAVYYCAADVRTPSEGYDYWGQGTQGTVSS,high polyreactivity
13,QGQLVESGGGLVQAGGSLRLTCAASGSTFDQNVMGWYRQAPGKERELVDTINFSGDSTYYADSVKGRFTISRDNAKNTVYLQRNSLKPEDTAVYYCAVDWGEYIDTSVKRDISSYWGQGTQVTVSS,low polyreactivity
14,QVQLVESGGGLVQAGGSLRLSCAASGSIFVQYDMGWYRQAPGKERELVAAITSGSSTNYADSVKGRFTISRDNAKNTVYLQMNSLKPEDTAVYYCAASTPYSYRYDYWGQGTQVTVSS,low polyreactivity
15,QVQLVESGGGLVQAGGSLRLSCAASGFTFYYYTMGGSRQAPGKERELVAAITSRGGNTYYADSVKGRFTISRDYAKNTVYLQMNSLNPEDTAVYYCAACRFSSRGYGYWGQGTQVTVSS,high polyreactivity
16,QVQLVESGGGLVNAGGSLRLSCAASGRITGDNAMVWYRQAPGKVRELVAAISTSRRTYYADSVKGRFTISRDNAKNTVYLQMNSLKPEDTAVYYCNAFGSNGGAMDYWGQGTQLTVSS,high polyreactivity
17,QVQLVESGGGLVQAGGSLRLSCAASGRTFYRYAMGWYRQAPGKERLVAAITWNGGSTYYADSVKGRFTISRDNAKNTVYLQMNSLNPEDTAVYYCAATFGGVSWRRPHRFDYWGQGTQVTVSS,high polyreactivity
18,QVQLVESGGGLVQAGGSLRLSCAASGRIFTNYAMGWYRQAPGKEREFVAAISWSDGSTYYADSVKGRFTISRDNAKNTVYLQMNSLKPEDTAVYYCATEGTYGTFYSYRHFYYWGQGTQVTVSS,high polyreactivity
19,QVQIVESGGGLVQAGGTLRISCAASGFTLYYYAMGWSRQAPGKERELVAAITSSGTSTYYADSVKGRFTISRDNAKNTVYLQMNSLKPEDTAVYYCAAVSKIYHYRAVRLDDYWGQGTQVSVSS,low polyreactivity
20,QVQLVESGGGLVQAGGSLRLSCAASGSTDNNAMGWYRQAPGKERELVAAIRFRSGSTYYADSVNGRFTISRDNAKNTVYLQMNSLKPEDTAVYYCAAPGSPYGYWGQGTQVTVSS,high polyreactivity
21,QVQLVESGGGLVQAGGSLRLSCAASGRTFYFNAMGWYRQAPGKERELVATITSDGSTNYADSVKGRFTISRDNAKNTVYLQMNSLKPEDTAVYYCAADYYRDIWPWYPLYNYWGQGTQVTVSS,low polyreactivity
